Article PMC12416549 (2024)
Where a chain is given by its changes, count along the chain named. Names may count otherwise.

T1: TNFR1 (Homo sapiens, UniProt P19438)
T1 chain: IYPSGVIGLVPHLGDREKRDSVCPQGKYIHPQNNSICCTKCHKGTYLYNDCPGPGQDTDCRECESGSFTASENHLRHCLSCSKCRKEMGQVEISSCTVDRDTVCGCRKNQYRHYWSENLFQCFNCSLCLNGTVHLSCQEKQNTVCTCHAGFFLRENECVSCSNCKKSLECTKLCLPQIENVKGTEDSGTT

B1: E95Y (designed binder)
chain: MTLQELLREEALRRAEAEAFRYALELLAEKFPEQKEYLLDLAEEIESQIRSLSGVDVEDVRKFLDKEWAWVKELLAEHPAELAEVEAARAARLAYLRAEVEAKVAA
B2: K30F (designed binder)
chain: B1 chain with K30F, Y95E
B3: V104M (designed binder)
chain: B1 chain with Y95E, V104M
B4: P79T (designed binder)
chain: B1 chain with P79T, Y95E
B5: E10W (designed binder)
chain: B1 chain with E10W, Y95E
B6: L38S (designed binder)
chain: B1 chain with L38S, Y95E
B7: A83Q (designed binder)
chain: B1 chain with A83Q, Y95E
B8: L74Y (designed binder)
chain: B1 chain with L74Y, Y95E
B9: V71W (designed binder)
chain: B1 chain with V71W, Y95E
B10: L64A (designed binder)
chain: B1 chain with L64A, Y95E
B11: L24N (designed binder)
chain: B1 chain with L24N, Y95E
B12: S53G (designed binder)
chain: B1 chain with S53G, Y95E
B13: L82I (designed binder)
chain: B1 chain with L82I, Y95E
B14: E43W (designed binder)
chain: B1 chain with E43W, Y95E
B15: E9S (designed binder)
chain: B1 chain with E9S, Y95E
B16: V55I (designed binder)
chain: B1 chain with V55I, Y95E
B17: K35C (designed binder)
chain: B1 chain with K35C, Y95E
B18: D56S (designed binder)
chain: B1 chain with D56S, Y95E
B19: D40S (designed binder)
chain: B1 chain with D40S, Y95E
B20: E44R (designed binder)
chain: B1 chain with E44R, Y95E
B21: E73M (designed binder)
chain: B1 chain with E73M, Y95E
B22: L74Q (designed binder)
chain: B1 chain with L74Q, Y95E

Biological target: T1, TNFR1
Experiment: yeast display SC50

apparent Kd (screen) [nM] | Binder
0.718 | B1
0.539 | B2
0.653 | B3
0.653 | B4
2.05 | B5
11.4 | B6
0.446 | B7
0.869 | B8
2.48 | B9
13.8 | B10
0.405 | B11
2.48 | B12
0.49 | B13
0.539 | B14
0.869 | B15
0.539 | B16
0.446 | B17
1.27 | B18
0.539 | B19
1.54 | B20
0.653 | B21
1.54 | B22
